Test results reported in article PMC3501490, “An Investigation of Hierachical Protein Recruitment to the Inhibitory Platelet Receptor, G6B-b” (PLoS ONE, 2012).

What was measured:
[1] = molecular target: Syk SH2 domains (UniProt P43405); assay: SPR; conditions: reference: unphosphorylated peptide; sites Y211,Y237
[2] = molecular target: SHP-1 tandem (N+C) SH2 domains (UniProt P29350); assay: SPR, 37°C
[3] = molecular target: SHP-2 C-terminal SH2 domain (UniProt Q06124); assay: SPR, 37°C; conditions: reference: unphosphorylated peptide; sites Y211,Y237
[4] = molecular target: SHP-2 tandem (N+C) SH2 domains (UniProt Q06124); assay: SPR, 37°C
[5] = molecular target: SHP-1 tandem (N+C) SH2 domains (UniProt P29350); assay: SPR kinetics, 37°C; conditions: reference: unphosphorylated peptide; sites Y211,Y237
[6] = molecular target: SHP-2 tandem (N+C) SH2 domains (UniProt Q06124); assay: SPR kinetics, 37°C; conditions: reference: unphosphorylated peptide
[7] = molecular target: SHP-1 tandem (N+C) SH2 domains (UniProt P29350); assay: direct peptide pull-down, Coomassie gel
[8] = molecular target: SHP-2 C-terminal SH2 domain (UniProt Q06124); assay: direct peptide pull-down, Coomassie gel; conditions: reference: unphosphorylated peptide; sites Y211,Y237
[9] = molecular target: SHP-2 N-terminal SH2 domain (UniProt Q06124); assay: direct peptide pull-down, Coomassie gel; conditions: reference: unphosphorylated peptide; sites Y211,Y237
[10] = molecular target: SHP-2 tandem (N+C) SH2 domains (UniProt Q06124); assay: direct peptide pull-down, Coomassie gel
[11] = molecular target: Syk tandem (N+C) SH2 domains (UniProt P43405); assay: direct peptide pull-down, Coomassie gel; conditions: reference: unphosphorylated peptide; sites Y211,Y237
[12] = molecular target: SHP-2 (UniProt Q06124); assay: biotin-peptide pull-down from platelet lysate; conditions: reference: unphosphorylated peptide; sites Y211,Y237
[13] = molecular target: Syk (UniProt P43405); assay: biotin-peptide pull-down from platelet lysate; conditions: reference: unphosphorylated peptide; sites Y211,Y237
[14] = molecular target: G6B-b dual phosphopeptide (biotinylated 60-mer, amino acids 182 to 241, pY211 and pY237) (human) (UniProt O95866); assay: pull-down; direct pull down assay: peptide on Streptactin beads incubated with equimolar purified SH2 domains (100 pM [sic] each for the tandem SH2 domains), 250 µl PBS, 30 minutes, room temperature; bound and unbound fractions on Coomassie-stained gels
[15] = molecular target: G6B-b dual phosphopeptide (biotinylated 60-mer, amino acids 182 to 241, pY211 and pY237) (human) (UniProt O95866); assay: SPR; BIAcore 3000, biotinylated peptides (50 RU) on streptavidin-coated CM5 chip, single SH2 domains flowed at 10 µl/min, HBS buffer pH 7.4, 0.15 M NaCl, 37°C; KD from equilibrium binding, single site fitting
[16] = molecular target: G6B-b pY211 phosphopeptide (biotinylated 60-mer, amino acids 182 to 241, ITIM phosphorylated) (human) (UniProt O95866); assay: as above
[17] = molecular target: G6B-b pY237 phosphopeptide (biotinylated 60-mer, amino acids 182 to 241, ITSM phosphorylated) (human) (UniProt O95866); assay: as above
[18] = molecular target: G6B-b pY211 phosphopeptide (biotinylated 60-mer, amino acids 182 to 241, ITIM phosphorylated) (human) (UniProt O95866); assay: pull-down; direct pull down assay: peptide on Streptactin beads incubated with equimolar purified SH2 domains (100 pM [sic] each for the tandem SH2 domains), 250 µl PBS, 30 minutes, room temperature; bound and unbound fractions on Coomassie-stained gels
[19] = molecular target: G6B-b pY237 phosphopeptide (biotinylated 60-mer, amino acids 182 to 241, ITSM phosphorylated) (human) (UniProt O95866); assay: as above
[20] = molecular target: G6B-b dual phosphopeptide (biotinylated 60-mer, amino acids 182 to 241, pY211 and pY237) (human) (UniProt O95866); assay: SPR; purified SH2 domains of Syk, PLCγ2, Src and PI3K p85 over immobilised G6B-b peptides; how the KD was obtained is not told
[21] = reference: pY211 peptide, sites Y237
[22] = reference: pY237 peptide, sites Y211
[23] = reference: unphosphorylated peptide, sites Y211,Y237

G6B-b 182-241 (from UniProt O95866) dual pY211/pY237 peptide
KD [1]: stronger
binding against the reference [2, 21]: stronger
binding against the reference [2, 22]: stronger
binding against the reference [3]: stronger
binding against the reference [4, 21]: stronger
binding against the reference [4, 22]: stronger
KD [5]: 0.0353 µM
KD ([6]; sites Y211,Y237): 0.00048 µM
other: share of SH2 protein bound [7, 21]: gained; reference little or no association
other: share of SH2 protein bound [7, 22]: gained; reference little or no association
other: share of SH2 protein bound [7, 23]: stronger
binding against the reference [8]: stronger
binding against the reference [9]: stronger
other: share of SH2 protein bound [10, 21]: stronger; reference ∼50
other: share of SH2 protein bound [10, 22]: stronger; reference ∼25
other: share of SH2 protein bound [10, 23]: stronger
other: share of SH2 protein bound [11]: stronger
binding against the reference [12]: gained
binding against the reference [13]: stronger

G6B-b 182-241 (from UniProt O95866) pY211 peptide
binding against the reference ([6]; sites Y211): stronger
other: share of SH2 protein bound ([10]; reference: unphosphorylated peptide, sites Y211): stronger

G6B-b 182-241 (from UniProt O95866) pY237 peptide
binding against the reference ([6]; sites Y237): stronger
other: share of SH2 protein bound ([10]; reference: unphosphorylated peptide, sites Y237): stronger

PLCγ2 N+C tandem SH2 domains (domain or fragment)
percent bound [14]: 40%

SHP-1 (N+C)SH2 domains (maltose binding protein-tag) (domain or fragment)
percent bound [14]: 30%

SHP-2 (N)SH2 (His-tag) (domain or fragment)
Kd [15]: 0.13 µM
Kd [16]: 0.11 µM
Kd [17]: 10 µM

SHP-2 (N+C)SH2 domains (His-tag) (domain or fragment)
percent bound [14]: 70%
percent bound [18]: 50%
percent bound [19]: 25%

Syk tandem (N+C) SH2 domains (domain or fragment)
Kd [20]: 25 µM
percent bound [14]: 20%
